Sequences and labels used below:
T1: laminin γ1 short arm fragment (γ1LN-LEa1-4) (Mus musculus, UniProt P02468 34-492)
T1 chain: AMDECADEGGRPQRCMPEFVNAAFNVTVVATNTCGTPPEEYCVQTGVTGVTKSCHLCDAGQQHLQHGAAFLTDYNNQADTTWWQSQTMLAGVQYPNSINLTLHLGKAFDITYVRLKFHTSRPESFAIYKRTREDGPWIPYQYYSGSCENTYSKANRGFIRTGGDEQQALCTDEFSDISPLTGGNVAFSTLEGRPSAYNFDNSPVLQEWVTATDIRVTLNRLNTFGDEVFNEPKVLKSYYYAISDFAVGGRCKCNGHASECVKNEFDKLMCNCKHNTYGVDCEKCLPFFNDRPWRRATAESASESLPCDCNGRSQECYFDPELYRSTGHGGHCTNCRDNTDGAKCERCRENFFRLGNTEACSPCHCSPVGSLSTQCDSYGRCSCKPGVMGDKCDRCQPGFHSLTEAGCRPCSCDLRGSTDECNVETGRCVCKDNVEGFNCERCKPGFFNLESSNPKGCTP

B1: full-length Net4 (Net4-FL) (natural protein, Mus musculus, UniProt Q9JI33 20-628, looked up)
chain: LNGVAGANSRCEKACNPRMGNLALGRKLRADTMCGQNATELFCFYSENADLTCRQPKCDKCNAAHSHLAHPPSAMADSSFRFPRTWWQSAEDVHREKIQLDLEAEFYFTHLIMVFKSPRPAAMVLDRSQDFGKTWKPYKYFATNCSATFGLEDDVVKKGAICTSRYSNPFPCTGGEVIFRALSPPYDIENPYSAKVQEQLKITNLRVRLLKRQSCPCQINDLNAKPHHFMHYAVYDFIVKGSCFCNGHADQCLPVEGFRPIKAPGAFHVVHGRCMCKHNTAGSHCQHCAPLYNDRPWEAADGRTGAPNECRTCKCNGHADTCHFDVNVWEASGNRSGGVCNNCQHNTEGQHCQRCKPGFYRDLRRPFSAPDACKACSCHPVGSAILPFSSVTFCDPSNGDCPCKPGVAGPHCDRCMVGYWGFGDYGCRPCDCAGSCDPLTGDCISSNADVDWYHEVPAFHSMHNKSEPSWEWEDEQGFSALRHSGKCECKEQVLGNPKAFCGMKYSYVLKIKILSAHDKGSHAEVNVKIKKVLKSTKLKILRGKRTLYPESWTNRGCTCPILNPGLEYLVAGHEDVRTGKLIVNMKSFVQHWKPALGRRVMHILKRDCV
notes: also called netrin-4; wild-type Net4; source: HEK293, stably transfected, purified (streptactin-sepharose, thrombin digestion, SEC); not shown: double Strep II, N-terminal, cleaved
B2: Net4-ΔC^ΔKAPGA (domain or fragment, Mus musculus, UniProt Q9JI33 20-462, looked up)
chain: LNGVAGANSRCEKACNPRMGNLALGRKLRADTMCGQNATELFCFYSENADLTCRQPKCDKCNAAHSHLAHPPSAMADSSFRFPRTWWQSAEDVHREKIQLDLEAEFYFTHLIMVFKSPRPAAMVLDRSQDFGKTWKPYKYFATNCSATFGLEDDVVKKGAICTSRYSNPFPCTGGEVIFRALSPPYDIENPYSAKVQEQLKITNLRVRLLKRQSCPCQINDLNAKPHHFMHYAVYDFIVKGSCFCNGHADQCLPVEGFRPIFHVVHGRCMCKHNTAGSHCQHCAPLYNDRPWEAADGRTGAPNECRTCKCNGHADTCHFDVNVWEASGNRSGGVCNNCQHNTEGQHCQRCKPGFYRDLRRPFSAPDACKACSCHPVGSAILPFSSVTFCDPSNGDCPCKPGVAGPHCDRCMVGYWGFGDYGCRPCDCAGSCDPLTGDC
notes: the limits of the deletion are printed for the combined mutant; probably made like its parent m1; also called Net4 mutant in which the specific loop b (KAPGA) within LE1 was deleted
B3: N-terminal laminin fragment α1LN-LEa1-4 (domain or fragment, Homo sapiens, UniProt P25391 18-453, looked up)
chain: RQRGLFPAILNLASNAHISTNATCGEKGPEMFCKLVEHVPGRPVRNPQCRICDGNSANPRERHPISHAIDGTNNWWQSPSIQNGREYHWVTITLDLRQVFQVAYVIIKAANAPRPGNWILERSLDGTTFSPWQYYAVSDSECLSRYNITPRRGPPTYRADDEVICTSYYSRLVPLEHGEIHTSLINGRPSADDLSPKLLEFTSARYIRLRLQRIRTLNADLMTLSHREPKELDPIVTRRYYYSIKDISVGGMCICYGHASSCPWDETTKKLQCQCEHNTCGESCNRCCPGYHQQPWRPGTVSSGNTCEACNCHNKAKDCYYDESVAKQKKSLNTAGQFRGGGVCINCLQNTMGINCETCIDGYYRPHKVSPYEDEPCRPCNCDPVGSLSSVCIKDDLHSDLHNGKQPGQCPCKEGYTGEKCDRCQLGYKDYPTCVS
notes: also called laminin α1; source: HEK293, stably transfected, purified (streptactin-sepharose, thrombin digestion, SEC); not shown: double Strep II, N-terminal, cleaved
B4: Net4 lacking the C-terminal domain (Net4-ΔC) (domain or fragment, Mus musculus, UniProt Q9JI33 20-462, looked up)
chain: LNGVAGANSRCEKACNPRMGNLALGRKLRADTMCGQNATELFCFYSENADLTCRQPKCDKCNAAHSHLAHPPSAMADSSFRFPRTWWQSAEDVHREKIQLDLEAEFYFTHLIMVFKSPRPAAMVLDRSQDFGKTWKPYKYFATNCSATFGLEDDVVKKGAICTSRYSNPFPCTGGEVIFRALSPPYDIENPYSAKVQEQLKITNLRVRLLKRQSCPCQINDLNAKPHHFMHYAVYDFIVKGSCFCNGHADQCLPVEGFRPIKAPGAFHVVHGRCMCKHNTAGSHCQHCAPLYNDRPWEAADGRTGAPNECRTCKCNGHADTCHFDVNVWEASGNRSGGVCNNCQHNTEGQHCQRCKPGFYRDLRRPFSAPDACKACSCHPVGSAILPFSSVTFCDPSNGDCPCKPGVAGPHCDRCMVGYWGFGDYGCRPCDCAGSCDPLTGDC
notes: lacks domain C); Two alternative constructs were cloned: one with an N-terminal His8 tag, one with an N-terminal double Strep II tag (not both on one chain); the tag was removed by thrombin; also called netrin-4; wild-type Net4; source: HEK293, stably transfected, purified (streptactin-sepharose or nickel TALON beads, thrombin digestion, SEC); not shown: double Strep II, N-terminal, cleaved; …
B5: laminin γ1 short arm fragment (γ1LN-LEa1-4) (domain or fragment, Mus musculus, UniProt P02468 34-492, looked up)
chain: T1 chain
notes: also called Lmγ1; N-terminal laminin γ1 fragment; source: HEK293, stably transfected, purified (streptactin-sepharose, thrombin digestion, SEC); not shown: double Strep II, N-terminal, cleaved

Series [1] concerns the target laminin γ1 (UniProt P02468). Particulars: cited from earlier work.
The target in series [2] is laminin γ1 short arm fragment (γ1LN-LEa1-4) (Mus musculus) (UniProt P02468). The series is described as follows: not stated; binding assay of Supplementary Fig. 6c; method not given.
Series [3] deals with T1, laminin γ1 short arm fragment …. The series is described as follows: MST.
Series [4] concerns the molecule itself. The series is described as follows: cross-linking; increasing crosslinker concentration; Supplementary Fig. 5a.
Series [5] has as its target B5. The series is described as above. To be noted: both partners purified.
The target in series [6] is B5. The series is described as follows: not stated; binding assays of Supplementary Fig. 6a,b; methods not shown (the author contributions name SPR measurements). Particulars: both partners purified. For orientation: SPR reads the build-up and loss of mass on a sensor chip optically.
The target in series [7] is B5. The series is described as follows: SEC; analytical size-exclusion chromatography of single proteins and of mixtures. To be noted: both partners purified. In general terms: SEC sorts molecules by how far they enter the pores of the column.
In series [8] the target is B5. As to the kind of experiment: rotary-shadowing electron microscopy; images of the Net4-ΔC-γ1LN-LEa1-4 complex. To be noted: both partners purified.
The target of series [9] is B5. As to the kind of experiment: MST; 2 nM labelled γ1LN-LEa1-4; Net4 0.08-1,000 nM, Net4 mutants 0.45-4,000 nM; 50 mM Tris/HCl pH 7.4, 150 mM NaCl, 2 mM CaCl2, 3% BSA; NanoTemper Monolith NT.115. To be noted: both partners purified.
The target in series [10] is T2, N-terminal laminin fragment β1LN-LEa1-4 (Homo sapiens, UniProt P07942 31-509).
T2 construct: also called laminin β1; Lmβ1; source: HEK293, stably transfected, purified (streptactin-sepharose, thrombin digestion, SEC); not shown: double Strep II, N-terminal, cleaved
The series is described as follows: SEC; analytical size-exclusion chromatography of single proteins and of mixtures. Particulars: both partners purified.

Series [11] addresses B1. As to the kind of experiment: MST; 2 nM labelled γ1LN-LEa1-4; Net4 0.08-1,000 nM, Net4 mutants 0.45-4,000 nM; 50 mM Tris/HCl pH 7.4, 150 mM NaCl, 2 mM CaCl2, 3% BSA; NanoTemper Monolith NT.115. To be noted: both partners purified.

T2 sequence (P07942 31-509): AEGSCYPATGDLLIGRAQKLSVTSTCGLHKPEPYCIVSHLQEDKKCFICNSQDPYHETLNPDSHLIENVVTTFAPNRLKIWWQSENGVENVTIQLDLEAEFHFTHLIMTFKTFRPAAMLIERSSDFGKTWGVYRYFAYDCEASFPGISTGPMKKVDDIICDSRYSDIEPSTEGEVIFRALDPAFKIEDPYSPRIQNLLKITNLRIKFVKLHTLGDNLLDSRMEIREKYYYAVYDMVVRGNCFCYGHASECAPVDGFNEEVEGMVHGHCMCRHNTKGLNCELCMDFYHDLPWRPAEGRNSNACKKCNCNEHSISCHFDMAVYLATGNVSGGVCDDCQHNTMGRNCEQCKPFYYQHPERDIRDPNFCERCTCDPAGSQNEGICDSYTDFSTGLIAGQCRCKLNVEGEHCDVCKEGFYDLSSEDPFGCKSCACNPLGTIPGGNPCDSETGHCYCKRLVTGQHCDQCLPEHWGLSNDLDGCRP

One may read the Kd as the free concentration of one partner at which half of the binding sites on the other are occupied at equilibrium, for simple one-to-one binding. Take laminin β1 (from UniProt P02469): in [1], the equilibrium dissociation constant (Kd) was 5000 nM.
In series [2], “Net4-ΔC^E195A,R199A (from UniProt Q9JI33 20-462) (domain or fragment)” registered a Kd of 66 nM.
One may read the stoichiometry N as a count of units in the complex or per binding partner. Consider B1, for which, in series [3], the Kd came out at 2.26 nM. Moreover, the entries for the “stoichiometry N” value in series [4] and in series [5] were 2 and 1, respectively.
As to B2, in series [6], the Kd was about 50 nM.
B3: the binding result in series [7] is on record as “binds”.
As to B4, the figures for the Kd in series [3] and in series [9] were 2.29 nM and about 2 nM, respectively. Moreover, the “stoichiometry N” value in [8] was determined as 1.
Turning to B5, in series [10], the binding result was “binds”. The molecule also gave a dissociation constant Kd in series [11] of about 2 nM.
